In patent US20220119553A1 (Sanofi, published 2022):

T1: human CD19 (ELISA antigen) (human, UniProt P15391 20-291, limits assumed)
T1 sequence (looked up): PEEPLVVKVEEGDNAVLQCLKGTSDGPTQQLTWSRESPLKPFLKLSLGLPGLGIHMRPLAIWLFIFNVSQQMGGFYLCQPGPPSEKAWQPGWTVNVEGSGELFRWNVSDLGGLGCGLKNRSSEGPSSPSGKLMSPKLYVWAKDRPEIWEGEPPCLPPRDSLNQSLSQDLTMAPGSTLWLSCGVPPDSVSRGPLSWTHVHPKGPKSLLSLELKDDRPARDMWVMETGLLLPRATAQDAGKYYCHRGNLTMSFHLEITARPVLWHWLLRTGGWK

T2: recombinant human IL4 (human, UniProt P05112 25-153)
T2 sequence (looked up): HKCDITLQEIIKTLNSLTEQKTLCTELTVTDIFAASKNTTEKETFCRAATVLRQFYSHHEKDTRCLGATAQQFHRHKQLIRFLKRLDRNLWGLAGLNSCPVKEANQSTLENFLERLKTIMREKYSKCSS


Key:
[1] = target: CD38 on human multiple myeloma cells (human, UniProt P28907 1-300); experiment: cell-based or functional assay
[2] = target: T1, human CD19 (ELISA antigen); experiment: ELISA on coated antigen, detection with HRP-conjugated anti-Fab secondary antibody, OD450
Experimental: The coated plate was blocked using 5% skim milk+2% BSA in PBS for one hour at RT, followed by washing with PBS+0.25% Tween 20 three times (Aqua Max 400, Molecular Devices). Serial dilution of antibodies (trispecific and control Abs) were prepared and added onto the ELISA plates (100 μl/well in duplicate), incubated at RT for one hour, followed by washing 5 times with PBS+0.25% Tween 20.
The reaction was terminated by adding 50 μl 1M H₂SO₄, and OD₄₅₀ was measured using SpectraMax M5 (Molecular Devices) and analyzed using SoftMax Pro6.3 software (Molecular Devices). […] EC50 was calculated using the same software.

[3] = target: T2, recombinant human IL4; experiment: cell-based or functional assay
[4] = target: T2, recombinant human IL4; experiment: SPR (BIACORE 3000), antibody captured, human IL4 as analyte

binding result [2] | IL4 IC50 (HEK Blue reporter assay) [3] | Kd [4] | No. of ILs Bound [4] | kDa Bound [4] | koff [4] | kon [4] | Binder | EC50 (pM), antibody-mediated cell killing of RPMI8226 cells [1]
– | – | – | – | – | – | – | Binding Protein 5 (other) heavy 1: QVQLVQSGAEVAKPGTSVKLSCKASGYTFTDYWMQWVKQRPGQGLEWIGTIYPGDGDTGYAQKFQGKATLTADKSSKTVYMHLSSLASEDSAVYYCARGDYYGSNSLDYWGQGTSVTVSSASTKGPSVFPLAPCSRSTSESTAALGCLVKDYFPEPVTVSWNSGALTSGVHTFPAVLQSSGLYSLSSVVTVPSSSLGTKTYTCNVDHKPSNTKVDKRVESKYGPPCPPCPAPEFLGGPSVFLFPPKPKDTLMISRTPEVTCVVVDVSQEDPEVQFNWYVDGVEVHNAKTKPREEQFNSTYRVVSVLTVLHQDWLNGKEYKCKVSNKGLPSSIEKTISKAKGQPREPQVYTLPPCQEEMTKNQVSLWCLVKGFYPSDIAVEWESNGQPENNYKTTPPVLDSDGSFFLYSKLTVDKSRWQEGNVFSCSVMHEALHNHYTQKSLSLSLGK light 1: DIVMTQSHLSMSTSLGDPVSITCKASQDVSTVVAWYQQKPGQSPRRLIYSASYRYIGVPDRFTGSGAGTDFTFTISSVQAEDLAVYYCQQHYSPPYTFGGGTKLEIKRTVAAPSVFIFPPSDEQLKSGTASVVCLLNNFYPREAKVQWKVDNALQSGNSQESVTEQDSKDSTYSLSSTLTLSKADYEKHKVYACEVTHQGLSSPVTKSFNRGEC heavy 2: QVQLVQSGAEVVKPGASVKVSCKASGYTFTSYYIHWVRQAPGQGLEWIGSIYPGNVNTNYAQKFQGRATLTVDTSISTAYMELSRLRSDDTAVYYCTRSHYGLDWNFDVWGKGTTVTVSSSQVQLVESGGGVVQPGRSLRLSCAASGFTFTKAWMHWVRQAPGKQLEWVAQIKDKSNSYATYYADSVKGRFTISRDDSKNTLYLQMNSLRAEDTAVYYCRGVYYALSPFDYWGQGTLVTVSSRTASTKGPSVFPLAPCSRSTSESTAALGCLVKDYFPEPVTVSWNSGALTSGVHTFPAVLQSSGLYSLSSVVTVPSSSLGTKTYTCNVDHKPSNTKVDKRVESKYGPPCPPCPAPEFLGGPSVFLFPPKPKDTLMISRTPEVTCVVVDVSQEDPEVQFNWYVDGVEVHNAKTKPREEQFNSTYRVVSVLTVLHQDWLNGKEYKCKVSNKGLPSSIEKTISKAKGQPREPQVCTLPPSQEEMTKNQVSLSCAVKGFYPSDIAVEWESNGQPENNYKTTPPVLDSDGSFFLVSKLTVDKSRWQEGNVFSCSVMHEALHNHYTQKSLSLSLGK light 2: DIVMTQTPLSLSVTPGQPASISCKSSQSLVHNNANTYLSWYLQKPGQSPQSLIYKVSNRFSGVPDRFSGSGSGTDFTLKISRVEAEDVGVYYCGQGTQYPFTFGSGTKVEIKGQPKAAPDIQMTQSPSSLSASVGDRVTITCQASQNIYVWLNWYQQKPGKAPKLLIYKASNLHTGVPSRFSGSGSGTDFTLTISSLQPEDIATYYCQQGQTYPYTFGQGTKLEIKTKGPSRTVAAPSVFIFPPSDEQLKSGTASVVCLLNNFYPREAKVQWKVDNALQSGNSQESVTEQDSKDSTYSLSSTLTLSKADYEKHKVYACEVTHQGLSSPVTKSFNRGEC | 0.379 pM
binds | – | – | – | – | – | – | Binding Protein 3 (other, Trispecific antibody of four chains, IgG4: anti-CD19 Fab arm (knob) and CODV arm anti-CD28 x anti-CD3 (hole); also called anti-CD19×CD28×CD3 IgG4 trispecific antibody; CD19 × (CD28 × CD3)) heavy 1: QVQLVQSGAEVKKPGSSVKVSCKASGYAFSSYWMNWVRQAPGQGLEWIGQIWPGDGDTNYNQKFKGRATLTADESTSTAYMELSSLRSEDTAVYYCARRETTTVGRYYYAMDYWGQGTTVTVSSASTKGPSVFPLAPCSRSTSESTAALGCLVKDYFPEPVTVSWNSGALTSGVHTFPAVLQSSGLYSLSSVVTVPSSSLGTKTYTCNVDHKPSNTKVDKRVESKYGPPCPPCPAPEFLGGPSVFLFPPKPKDTLMISRTPEVTCVVVDVSQEDPEVQFNWYVDGVEVHNAKTKPREEQFNSTYRVVSVLTVLHQDWLNGKEYKCKVSNKGLPSSIEKTISKAKGQPREPQVYTLPPCQEEMTKNQVSLWCLVKGFYPSDIAVEWESNGQPENNYKTTPPVLDSDGSFFLYSKLTVDKSRWQEGNVFSCSVMHEALHNHYTQKSLSLSLGK light 1: DLVLTQSPASLAVSPGQRATITCKASQSVDYDGDSYLNWYQQKPGQPPKLLIYDASNLVSGVPARFSGSGSGTDFTLTINPVEANDTANYYCQQSTEDPWTFGQGTKLEIKRTVAAPSVFIFPPSDEQLKSGTASVVCLLNNFYPREAKVQWKVDNALQSGNSQESVTEQDSKDSTYSLSSTLTLSKADYEKHKVYACEVTHQGLSSPVTKSFNRGEC heavy 2: QVQLVQSGAEVVKPGASVKVSCKASGYTFTSYYIHWVRQAPGQGLEWIGSIYPGNVNTNYAQKFQGRATLTVDTSISTAYMELSRLRSDDTAVYYCTRSHYGLDWNFDVWGKGTTVTVSSSQVQLVESGGGVVQPGRSLRLSCAASGFTFTKAWMHWVRQAPGKQLEWVAQIKDKSNSYATYYADSVKGRFTISRDDSKNTLYLQMNSLRAEDTAVYYCRGVYYALSPFDYWGQGTLVTVSSRTASTKGPSVFPLAPCSRSTSESTAALGCLVKDYFPEPVTVSWNSGALTSGVHTFPAVLQSSGLYSLSSVVTVPSSSLGTKTYTCNVDHKPSNTKVDKRVESKYGPPCPPCPAPEFLGGPSVFLFPPKPKDTLMISRTPEVTCVVVDVSQEDPEVQFNWYVDGVEVHNAKTKPREEQFNSTYRVVSVLTVLHQDWLNGKEYKCKVSNKGLPSSIEKTISKAKGQPREPQVCTLPPSQEEMTKNQVSLSCAVKGFYPSDIAVEWESNGQPENNYKTTPPVLDSDGSFFLVSKLTVDKSRWQEGNVFSCSVMHEALHNHYTQKSLSLSLGK light 2: DIVMTQTPLSLSVTPGQPASISCKSSQSLVHNNANTYLSWYLQKPGQSPQSLIYKVSNRFSGVPDRFSGSGSGTDFTLKISRVEAEDVGVYYCGQGTQYPFTFGSGTKVEIKGQPKAAPDIQMTQSPSSLSASVGDRVTITCQASQNIYVWLNWYQQKPGKAPKLLIYKASNLHTGVPSRFSGSGSGTDFTLTISSLQPEDIATYYCQQGQTYPYTFGQGTKLEIKTKGPSRTVAAPSVFIFPPSDEQLKSGTASVVCLLNNFYPREAKVQWKVDNALQSGNSQESVTEQDSKDSTYSLSSTLTLSKADYEKHKVYACEVTHQGLSSPVTKSFNRGEC | –
– | 0.013 µg/mL | 5.88 pM | 1 | 17 kDa | 0.00028 s⁻¹ | 4.77e+07 M⁻¹ s⁻¹ | Binding Protein 16 (bispecific antibody, human IgG1, kappa, lambda, Bispecific trivalent (CODV-Fab) × Fab-IgG1 Fc; two IL13 sites, one IL4 site; also called IL13 × (IL13 × IL4); (anti-IL13 × anti-IL4) × anti-IL13) heavy 1: not shown light 1: DIVLTQSPASLAVSLGQRATISCRASESVDSYGQSYMHWYQQKAGQPPKLLIYLASNLESGVPARFSGSGSRTDFTLTIDPVQAEDAATYYCQQNAEDSRTFGGGTKLEIKGQPKAAPSVTLFPPSSEELQANKATLVCLISDFYPGAVTVAWKADSSPVKAGVETTTPSKQSNNKYAASSYLSLTPEQWKSHRSYSCQVTHEGSTVEKTVAPTECS heavy 2: not shown light 2: not shown | –
– | 0.0146 µg/mL | 10.2 pM | 1 | 18 kDa | 0.000359 s⁻¹ | 3.52e+07 M⁻¹ s⁻¹ | Binding Protein 18 (bispecific antibody, human IgG1, kappa, lambda, Bispecific trivalent (CODV-Fab) × Fab-IgG1 Fc; two IL13 sites, one IL4 site; also called IL13 × (IL4 × IL13); (anti-IL4 × anti-IL13) × anti-IL13) heavy 1: not shown light 1: DIVLTQSPASLAVSLGQRATISCRASESVDSYGQSYMHWYQQKAGQPPKLLIYLASNLESGVPARFSGSGSRTDFTLTIDPVQAEDAATYYCQQNAEDSRTFGGGTKLEIKGQPKAAPSVTLFPPSSEELQANKATLVCLISDFYPGAVTVAWKADSSPVKAGVETTTPSKQSNNKYAASSYLSLTPEQWKSHRSYSCQVTHEGSTVEKTVAPTECS heavy 2: not shown light 2: not shown | –
– | 0.00862 µg/mL | 2.4 pM | 2 | 35 kDa | 0.00076 s⁻¹ | 3.16e+08 M⁻¹ s⁻¹ | Binding Protein 17 (bispecific antibody, human IgG1, kappa, lambda, Bispecific trivalent (CODV-Fab) × Fab-IgG1 Fc; two IL4 sites, one IL13 site; also called IL4 × (IL13 × IL4); (anti-IL13 × anti-IL4) × anti-IL4) heavy 1: not shown light 1: DIQMTQSPASLSVSVGDTITLTCHASQNIDVWLSWFQQKPGNIPKLLIYKASNLHTGVPSRFSGSGSGTGFTLTISSLQPEDIATYYCQQAHSYPFTFGGGTKLEIKGQPKAAPSVTLFPPSSEELQANKATLVCLISDFYPGAVTVAWKADSSPVKAGVETTTPSKQSNNKYAASSYLSLTPEQWKSHRSYSCQVTHEGSTVEKTVAPTECS heavy 2: not shown light 2: not shown | –
– | 0.00573 µg/mL | 4.65 pM | 2 | 34 kDa | 0.000385 s⁻¹ | 8.27e+07 M⁻¹ s⁻¹ | Binding Protein 19 (bispecific antibody, human IgG1, kappa, lambda, Bispecific trivalent (CODV-Fab) × Fab-IgG1 Fc; two IL4 sites, one IL13 site; also called IL4 × (IL4 × IL13); (anti-IL4 × anti-IL13) × anti-IL4) heavy 1: not shown light 1: DIQMTQSPASLSVSVGDTITLTCHASQNIDVWLSWFQQKPGNIPKLLIYKASNLHTGVPSRFSGSGSGTGFTLTISSLQPEDIATYYCQQAHSYPFTFGGGTKLEIKGQPKAAPSVTLFPPSSEELQANKATLVCLISDFYPGAVTVAWKADSSPVKAGVETTTPSKQSNNKYAASSYLSLTPEQWKSHRSYSCQVTHEGSTVEKTVAPTECS heavy 2: not shown light 2: not shown | –
